Data set [1] addresses UbcH5b (E2 ubiquitin-conjugating enzyme), P62837.
Data set [2] concerns the target GST-tagged PKN1, Q16512.

Sequence of UbcH5b (E2 ubiquitin-conjugating enzyme), P62837 (P62837 whole entry, looked up): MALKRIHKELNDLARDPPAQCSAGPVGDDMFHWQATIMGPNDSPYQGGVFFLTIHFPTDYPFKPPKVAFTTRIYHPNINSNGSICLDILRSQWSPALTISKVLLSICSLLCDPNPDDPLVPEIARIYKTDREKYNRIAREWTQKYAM
Sequence of GST-tagged PKN1, Q16512 (Q16512 whole entry, looked up): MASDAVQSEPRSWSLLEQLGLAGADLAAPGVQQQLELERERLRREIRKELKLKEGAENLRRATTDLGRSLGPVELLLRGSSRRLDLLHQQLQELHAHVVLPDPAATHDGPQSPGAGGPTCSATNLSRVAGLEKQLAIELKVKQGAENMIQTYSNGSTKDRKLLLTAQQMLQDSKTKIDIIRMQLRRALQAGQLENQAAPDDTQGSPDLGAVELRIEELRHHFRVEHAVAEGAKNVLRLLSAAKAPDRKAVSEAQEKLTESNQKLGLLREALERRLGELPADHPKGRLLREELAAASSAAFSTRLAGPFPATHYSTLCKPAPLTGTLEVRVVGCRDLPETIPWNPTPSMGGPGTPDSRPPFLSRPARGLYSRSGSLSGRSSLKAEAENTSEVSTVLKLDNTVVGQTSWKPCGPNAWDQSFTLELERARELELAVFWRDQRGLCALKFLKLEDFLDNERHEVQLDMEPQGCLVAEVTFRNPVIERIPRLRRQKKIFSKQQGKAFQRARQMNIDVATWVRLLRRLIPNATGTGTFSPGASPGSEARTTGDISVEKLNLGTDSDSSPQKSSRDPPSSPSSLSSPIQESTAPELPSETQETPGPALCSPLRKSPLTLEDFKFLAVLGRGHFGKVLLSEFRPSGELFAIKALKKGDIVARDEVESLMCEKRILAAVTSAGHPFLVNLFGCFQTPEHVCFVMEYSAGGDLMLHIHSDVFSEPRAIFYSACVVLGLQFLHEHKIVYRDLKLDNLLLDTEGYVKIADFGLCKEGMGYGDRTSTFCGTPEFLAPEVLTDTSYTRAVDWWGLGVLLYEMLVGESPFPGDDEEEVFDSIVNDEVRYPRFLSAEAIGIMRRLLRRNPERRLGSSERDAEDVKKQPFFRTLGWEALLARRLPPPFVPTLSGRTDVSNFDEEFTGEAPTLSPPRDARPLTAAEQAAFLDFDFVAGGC

B1: recombinant IpaH9.8 from Shigella flexneri (protein)
chain: MLPINNNFSLPQNSFYNTISGTYADYFSAWDKWEKQALPGEERDEAVSRLKECLINNSDELRLDRLNLSSLPDNLPAQITLLNVSYNQLTNLPELPVTLKKLYSASNKLSELPVLPPALESLQVQHNELENLPALPDSLLTMNISYNEIVSLPSLPQALKNLRATRNFLTELPAFSEGNNPVVREYFFDRNQISHIPESILNLRNECSIHISDNPLSSHALQALQRLTSSPDYHGPRIYFSMSDGQQNTLHRPLADAVTAWFPENKQSDVSQIWHAFEHEEHANTFSAFLDRLSDTVSARNTSGFREQVAAWLEKLSASAELRQQSFAVAADATESCEDRVALTWNNLRKTLLVHQASEGLFDNDTGALLSLGREMFRLEILEDIARDKVRTLHFVDEIEVYLAFQTMLAEKLQLSTAVKEMRFYGVSGVTANDLRTAEAMVRSREENEFTDWFSLWGPWHAVLKRTEADRWAQAEEQKYEMLENEYPQRVADRLKASGLSGDADAEREAGAQVMRETEQQIYRQLTDEVLALRLFENGSQLHHSHHHHHH
Regarding B1, the “in vitro ubiquitination assay, anti-HA western blot” value in data set [1] is “have the ability to remove ubiquitin from ubiquitinated UbcH5b in order to form poly-ubiquitin chains of the HA-tagged ubiquitin”.

B2: recombinant IpaH2.5 from Shigella flexneri (protein)
chain: MIKSTNIQVIGSGIMHQINNIHSLTLFSLPVSLSPSCNEYYLKVWSEWEKNGTPGEQRNIAFNRLKICLQNQEAELNLSELDLKTLPDLPPQITTLEIRKNLLTHLPDLPPMLKVIHAQFNQLESLPALPETLEELNAGDNKIKELPFLPENLTHLRVHNNRLHILPLLPPELKLLVVSGNRLDSIPPFPDKLEGLALANNFIEQLPELPFSMNRAVLMNNNLTTLPESVLRLAQNAFVNVAGNPLSGHTMRTLQQITTGPDYSGPRIFFSMGNSATISAPEHSLADAVTAWFPENKQSDVSQIWHAFEHEEHANTFSAFLDRLSDTVSARNTSGFREQVAAWLEKLSASAELRQQSFAVAADATESCEDRVALTWNNLRKTLLVHQASEGLFDNDTGALLSLGREMFRLEILEDIARDKVRTLHFVDEIEVYLAFQTMLAEKLQLSTAVKEMRFYGVSGVTANDLRTAEAMVRSREENEFTDWFSLWGPWHAVLKRTEADRWAQAEEQKYEMLENEYSQRVADRLKASGLSGDADAEREAGAQVMRETEQQIYRQLTDEVLAHHHHHH
For the protein B2, the “in vitro ubiquitination assay, anti-HA western blot” value in data set [1] is recorded as “have the ability to remove ubiquitin from ubiquitinated UbcH5b in order to form poly-ubiquitin chains of the HA-tagged ubiquitin”.

B3: recombinant IpaH4.5 from Shigella flexneri (protein)
chain: MKPINNHSFFRSLCGLSCISRLSVEEQCTRDYHRIWDDWAREGTTTENRIQAVRLLKICLDTREPVLNLSLLKLRSLPPLPLHIRELNISNNELISLPENSPLLTELHVNGNNLNILPTLPSQLIKLNISFNRNLSCLPSLPPYLQSLSARFNSLETLPELPSTLTILRIEGNRLTVLPELPHRLQELFVSGNRLQELPEFPQSLKYLKVGENQLRRLSRLPQELLALDVSNNLLTSLPENIITLPICTNVNISGNPLSTHVLQSLQRLTSSPDYHGPQIYFSMSDGQQNTLHRPLADAVTAWFPENKQSDVSQIWHAFEHEEHANTFSAFLDRLSDTVSARNTSGFREQVAAWLEKLSASAELRQQSFAVAADATESCEDRVALTWNNLRKTLLVHQASEGLFDNDTGALLSLGREMFRLEILEDIARDKVRTLHFVDEIEVYLAFQTMLAEKLQLSTAVKEMRFYGVSGVTANDLRTAEAMVRSREENEFTDWFSLWGPWHAVLKRTEADRWAQAEEQKYEMLENEYSQRVADRLKASGLSGDADAEREAGAQVMRETEQQIYRQLTDEVLAHHHHHH
Turning to B3, in data set [1], the “in vitro ubiquitination assay, anti-HA western blot” value is given as “have the ability to remove ubiquitin from ubiquitinated UbcH5b in order to form poly-ubiquitin chains of the HA-tagged ubiquitin”.

B4: recombinant SlrP from Salmonella enterica serovar Typhimurium (protein)
chain: MFNITNIQSTARHQSISNEASTEVPLKEEIWNKISAFFSSEHQVEAQNCIAYLCHPPETASPEEIKSKFECLRMLAFPAYADNIQYSRGGADQYCILSENSQEILSIVFNTEGYTVEGGGKSVTYTRVTESEQASSASGSKDAVNYELIWSEWVKEAPAKEAANREEAVQRMRDCLKNNKTELRLKILGLTTIPAYIPEQITTLILDNNELKSLPENLQGNIKTLYANSNQLTSIPATLPDTIQEMELSINRITELPERLPSALQSLDLFHNKISCLPENLPEELRYLSVYDNSIRTLPAHLPSEITHLNVQSNSLTALPETLPPGLKTLEAGENALTSLPASLPPELQVLDVSKNQITVLPETLPPTITTLDVSRNALTNLPENLPAALQIMQASRNNLVRLPESLPHFRGEGPQPTRIIVEYNPFSERTIQNMQRLMSSVDYQGPRVLFAMGDFSIVRVTRPLHQAVQGWLTSLEEEDVNQWRAFEAEANAAAFSGFLDYLGDTQNTRHPDFKEQVSAWLMRLAEDSALRETVFIIAMNATISCEDRVTLAYHQMQEATLVHDAERGAFDSHLAELIMAGREIFRLEQIESLAREKVKRLFFIDEVEVFLGFQNQLRESLSLTTMTRDMRFYNVSGITESDLDEAEIRIKMAENRDFHKWFALWGPWHKVLERIAPEEWREMMAKRDECIETDEYQSRVNAELEDLRIADDSDAERTTEVQMDAERAIGIKIMEEINQTLFTEIMENILLKKEVSSLMSAYWRHHHHHH
B4: the “in vitro ubiquitination assay, anti-HA western blot” value in data set [1] is “have the ability to remove ubiquitin from ubiquitinated UbcH5b in order to form poly-ubiquitin chains of the HA-tagged ubiquitin”.

B5: recombinant IpaH7.8 from Shigella flexneri (protein)
chain: MFSVNNTHSSVSCSPSINSNSTSNEHYLRILTEWEKNSSPGEERGIAFNRLSQCFQNQEAVLNLSDLNLTSLPELPKHISALIVENNKLTSLPKLPAFLKELNADNNRLSVIPELPESLTTLSVRSNQLENLPVLPNHLTSLFVENNRLYNLPALPEKLKFLHVYYNRLTTLPDLPDKLEILCAQRNNLVTFPQFSDRNNIRQKEYYFHFNQITTLPESFSQLDSSYRINISGNPLSTRVLQSLQRLTSSPDYHGPQIYFSMSDGQQNTLHRPLADAVTAWFPENKQSDVSQIWHAFEHEEHANTFSAFLDRLSDTVSARNTSGFREQVAAWLEKLSASAELRQQSFAVAADATESCEDRVALTWNNLRKTLLVHQASEGLFDNDTGALLSLGREMFRLEILEDIARDKVRTLHFVDEIEVYLAFQTMLAEKLQLSTAVKEMRFYGVSGVTANDLRTAEAMVRSREENEFTDWFSLWGPWHAVLKRTEADRWAQAEEQKYEMLENEYSQRVADRLKASGLSGDADAEREAGAQVMRETEQQIYRQLTDEVLALRLSENGSRLHHSHHHHHH
Regarding B5, the “in vitro ubiquitination assay, anti-HA western blot” value in data set [1] is recorded as “have the ability to remove ubiquitin from ubiquitinated UbcH5b in order to form poly-ubiquitin chains of the HA-tagged ubiquitin”.

B6: recombinant IpaH1.4 from Shigella flexneri (protein)
chain: MIKSTNIQAIGSGIMHQINNVYSLTPLSLPMELTPSCNEFYLKTWSEWEKNGTPGEQRNIAFNRLKICLQNQEAELNLSELDLKTLPDLPPQITTLEIRKNLLTHLPDLPPMLKVIHAQFNQLESLPALPETLEELNAGDNKIKELPFLPENLTHLRVHNNRLHILPLLPPELKLLVVSGNRLDSIPPFPDKLEGLALANNFIEQLPELPFSMNRAVLMNNNLTTLPESVLRLAQNAFVNVAGNPLSGHTMRTLQQITTGPDYSGPRIFFSMGNSATISAPEHSLADAVTAWFPENKQSDVSQIWHAFEHEEHANTFSAFLDRLSDTVSARNTSGFREQVAAWLEKLSASAELRQQSFAVAADATESCEDRVALTWNNLRKTLLVHQASEGLFDNDTGALLSLGREMFRLEILEDIARDKVRTLHFVDEIEVYLAFQTMLAEKLQLSTAVKEMRFYGVSGVTANDLRTAEAMVRSREENEFTDWFSLWGPWHAVLKRTEADRWAQAEEQKYEMLENEYSQRVADRLKASGLSGDADAEREAGAQVMRETEQQIYRQLTDEVLALRLSENGSNHIAHHHHHH
B6: in data set [1], the “in vitro ubiquitination assay, anti-HA western blot” value is “have the ability to remove ubiquitin from ubiquitinated UbcH5b in order to form poly-ubiquitin chains of the HA-tagged ubiquitin”.

B7: recombinant SspH1 of Salmonella enterica serovar Typhimurium with C-terminal 6x His-tag (protein)
chain: MFNIRNTQPSVSMQAIAGAAAPEASPEEIVWEKIQVFFPQENYEEAQQCLAELCHPARGMLPDHISSQFARLKALTFPAWEENIQCNRDGINQFCILDAGSKEILSITLDDAGNYTVNCQGYSEAHDFIMDTEPGEECTEFAEGASGTSLRPATTVSQKAAEYDAVWSKWERDAPAGESPGRAAVVQEMRDCLNNGNPVLNVGASGLTTLPDRLPPHITTLVIPDNNLTSLPELPEGLRELEVSGNLQLTSLPSLPQGLQKLWAYNNWLASLPTLPPGLGDLAVSNNQLTSLPEMPPALRELRVSGNNLTSLPALPSGLQKLWAYNNRLTSLPEMSPGLQELDVSHNQLTRLPQSLTGLSSAARVYLDGNPLSVRTLQALRDIIGHSGIRIHFDMAGPSVPREARALHLAVADWLTSAREGEAAQADRWQAFGLEDNAAAFSLVLDRLRETENFKKDAGFKAQISSWLTQLAEDAALRAKTFAMATEATSTCEDRVTHALHQMNNVQLVHNAEKGEYDNNLQGLVSTGREMFRLATLEQIAREKAGTLALVDDVEVYLAFQNKLKESLELTSVTSEMRFFDVSGVTVSDLQAAELQVKTAENSGFSKWILQWGPLHSVLERKVPERFNALREKQISDYEDTYRKLYDEVLKSSGLVDDTDAERTIGVSAMDSAKKEFLDGLRALVDEVLGSYLTARWRLNHHHHHH
As to B7, the “in vitro ubiquitination assay, western blot” value in data set [1] was “recombinant SspH1 has the ability to remove ubiquitin from ubiquitinated UbcH5B, to autoubiquitinate, and to polyubiquitinate Ha-tagged ubiquitin”. In data set [2], the “in vitro ubiquitination assay, anti-PKN1 immunoblot” value is “When the reaction was performed in the presence of SspH1 and PKN1 in vitro, anti-PKN1 antibodies detected an additional species migrating at a size >148 kDa”; the “in vitro ubiquitination assay, immunoblots with anti-HA, anti-PKN1 and anti-His antibodies” value is given as “recombinant SspH1 ubiquitinates PKN1 in vitro”.

Source of the values: patent US20200038493.
